{"source": "patent US20140186823", "about": "“MUTANT PORES” (OXFORD NANOPORE TECHNOLOGIES LIMITED, published 2014)", "binders": {"B1": {"name": "FIG. 12 DNA substrate (dsDNA)", "DNA 1": "TTTTTTTTTTTTTTTTTTTTTCCCCCCCCCCCCCCTATTCTGTTTATGTTTCTTGTTTGTTAGCCCCCTTTGATAAGACAAATACAAAGAACAAACAATCGGCCCTTTAGTGGAGCGAGTGCGAGAGGCGAGCGGTCAA", "DNA 2": "GTATCTCCATCGCTGTTGACCGCTCGCCTCTCGCACTCGCTCCACTAAAGGGCCGATTGTTTGTTCTTTGTATTTGTCTTATCAAAGGGGGCTAACAAACAAGAAACATAAACAGAATAG", "DNA 3": "CAGCGATGGAGATAC", "modifications": "iSp9 and 3' Cholesteryl-TEG on SEQ 23"}}, "details_in_all_cases": "chain copies: 8 (stated)", "key": {"MS-(B1-I105Y)8": {"target": "MS-(B1-I105Y)8 (Mycobacterium smegmatis, UniProt A0QR29 SEQ:1-184, I105Y)", "test": "current range; Phi29 unzipping, +180 mV", "experimental": "(§1) The runs were conducted at room temperature at an applied potential of +180 mV. Current levels observed when the DNA is in the enzyme bound state were indexed and the current level, its duration and variance were recorded.\n(§2) This pre-incubation mix was added to 900 μL of buffer in the cis compartment of the electrophysiology chamber to initiate capture of the polymerase-DNA complexes in the MspA nanopore (to give final concentrations of DNA=0.5 nM, Enzyme=0.1 μM). Experiments were carried out at a constant potential of +180 mV. Current levels observed when the DNA is in the enzyme bound state were indexed and the current level, its duration and variance were recorded."}, "MS-(B1-I89Y-D90S)8": {"target": "MS-(B1-I89Y-D90S)8 (Mycobacterium smegmatis, UniProt A0QR29 SEQ:1-184, I89Y,N90S)", "test": "current range; Phi29 unzipping, +180 mV", "experimental": "as §1, §2"}, "MS-(B1-S103G)8": {"target": "MS-(B1-S103G)8 (Mycobacterium smegmatis, UniProt A0QR29 SEQ:1-184, S103G)", "test": "current range; Phi29 unzipping, +180 mV", "experimental": "as §1, §2"}, "MS-(B1-N86T)8": {"target": "MS-(B1-N86T)8 (Mycobacterium smegmatis, UniProt A0QR29 SEQ:1-184, N86T)", "test": "current range; Phi29 unzipping, +180 mV", "experimental": "as §1, §2"}, "MS-(B1-I105L)8": {"target": "MS-(B1-I105L)8 (Mycobacterium smegmatis, UniProt A0QR29 SEQ:1-184, I105L)", "test": "current range; Phi29 unzipping, +180 mV", "experimental": "as §1, §2"}, "MS-(B1-D90Q)8": {"target": "MS-(B1-D90Q)8 (Mycobacterium smegmatis, UniProt A0QR29 SEQ:1-184, N90Q)", "test": "current range; Phi29 unzipping, +180 mV", "experimental": "as §1, §2"}, "MS-(B1-L88S)8": {"target": "MS-(B1-L88S)8 (Mycobacterium smegmatis, UniProt A0QR29 SEQ:1-184, L88S)", "test": "mean S.D. of current levels (B1 baseline 3.26)", "experimental": "as §2"}, "MS-(B1-L88Q)8": {"target": "MS-(B1-L88Q)8 (Mycobacterium smegmatis, UniProt A0QR29 SEQ:1-184, L88Q)", "test": "mean S.D. of current levels (B1 baseline 3.26)", "experimental": "as §2"}, "MS-(B1-L88N)8": {"target": "MS-(B1-L88N)8 (Mycobacterium smegmatis, UniProt A0QR29 SEQ:1-184, L88N)", "test": "mean S.D. of current levels (B1 baseline 3.26)", "experimental": "as §2"}}}
{"binder": "B1", "values": [{"measurement": "activity", "setting": "MS-(B1-I105Y)8", "result": 45, "unit": "pA"}, {"measurement": "activity", "setting": "MS-(B1-I89Y-D90S)8", "result": 67, "unit": "pA"}, {"measurement": "activity", "setting": "MS-(B1-S103G)8", "result": 54, "unit": "pA"}, {"measurement": "activity", "setting": "MS-(B1-N86T)8", "result": 58, "unit": "pA"}, {"measurement": "activity", "setting": "MS-(B1-I105L)8", "result": 42, "unit": "pA"}, {"measurement": "activity", "setting": "MS-(B1-D90Q)8", "result": 70, "unit": "pA"}, {"measurement": "activity", "setting": "MS-(B1-L88S)8", "result": 3.12}, {"measurement": "activity", "setting": "MS-(B1-L88Q)8", "result": 3.3}, {"measurement": "activity", "setting": "MS-(B1-L88N)8", "result": 3.22}]}
